Drawing on article PMC7954794, “Protein context shapes the specificity of SH3 domain-mediated interactions in vivo” (Nature Communications, 2021), this text covers Flag for 4 molecules.

For the assay, the system named is SH3-deleted bait proteins (1xFLAG). The experiment in a line: Western blot expression level of SH3-deleted baits (Fig. S1F-G). It is filed as cell-based, Saccharomyces cerevisiae. The note with it: Western blot Flag signal, 1xFLAG-tagged WT or SH3-deleted bait; sheet FigS1F-G. The procedure:
Precultures of yeast cells expressing baits fused with the DHFR F[1,2]-FLAG were grown overnight at 30 °C with agitation in synthetic complete medium. The next day, cells were expanded in synthetic complete medium to reach their exponential phase (OD600 of around 1.0), pelleted, and frozen at −80 °C. The equivalent of fifty OD600 of cells was resuspended in ice-cold yeast lysis buffer (10 mM Tris-HCl pH 7.4, 150 mM NaCl, 0.5 mM EDTA (Millipore Sigma), 1% Triton X-100 (Millipore Sigma), and one cOmplete Mini Protease Inhibitor Cocktail (Millipore Sigma) per 10 mL) with […] glass beads (Millipore Sigma) and disrupted at 4 °C by 10 cycles of 2 min vortexing and 2 min cooldown. The equivalent of […] of lysed cells was used for the immunoprecipitation of the bait proteins using FLAG-M2 agarose beads (Millipore Sigma). The beads were incubated with the cell lysates for 120 min at 4 °C with a slow rotation, followed by three washes with the yeast lysis buffer.
Protein extracts and affinity-purified baits from yeast and human lysed cells were migrated on 10% polyacrylamide gels. The separated proteins were then transferred to nitrocellulose membranes. Validation of correct protein loading was done with ponceau staining of the membranes. Before the primary antibody incubations, membranes were blocked in 5% milk. Protein signals were detected on an Amersham Imager 600RGB (GE Healthcare) following the incubation of the membranes with the appropriate HRP-conjugated secondary antibodies and the Clarity Western ECL Substrate (Bio-Rad). The antibodies used in this study are M2-HRP (A8592, Sigma, 1/50,000), rabbit anti-FLAG (F7425, Sigma, 1/1000), PAK (SC-881, Santa Cruz, 1/200), p130cas/BCAR1 (SC-860, Santa Cruz, 1/200), actin (Cell Signaling Technology, 1/2000), anti-mouse HRP (Cell Signaling Technology, 1/10,000) and anti-rabbit HRP (Cell Signaling Technology, 1/10,000). The quantification of the WB signals was performed with the Amersham Imager 600 analysis software (GE Healthcare).

B1: Bem1 WT (protein, UniProt P29366 1-551, looked up)
Bud emergence protein 1: MLKNFKLSKRDSNGSKGRITSADISTPSHDNGSVIKHIKTVPVRYLSSSSTPVKSQRDSSPKNRHNSKDITSPEKVIKAKYSYQAQTSKELSFMEGEFFYVSGDEKDWYKASNPSTGKEGVVPKTYFEVFDRTKPSSVNGSNSSSRKVTNDSLNMGSLYAIVLYDFKAEKADELTTYVGENLFICAHHNCEWFIAKPIGRLGGPGLVPVGFVSIIDIATGYATGNDVIEDIKSVNLPTVQEWKSNIARYKASNISLGSVEQQQQQSITKPQNKSAKLVDGELLVKASVESFGLEDEKYWFLVCCELSNGKTRQLKRYYQDFYDLQVQLLDAFPAEAGKLRDAGGQWSKRIMPYIPGPVPYVTNSITKKRKEDLNIYVADLVNLPDYISRSEMVHSLFVVLNNGFDREFERDENQNNIKTLQENDTATFATASQTSNFASTNQDNTLTGEDLKLNKKLSDLSLSGSKQAPAQSTSGLKTTKIKFYYKDDIFALMLKGDTTYKELRSKIAPRIDTDNFKLQTKLFDGSGEEIKTDSQVSNIIQAKLKISVHDI
The molecule B1 had a Flag of 104455.

B2: Abp1 WT (protein, UniProt P15891 2-592, looked up)
Actin-binding protein: ALEPIDYTTHSREIDAEYLKIVRGSDPDTTWLIISPNAKKEYEPESTGSSFHDFLQLFDETKVQYGLARVSPPGSDVEKIIIIGWCPDSAPLKTRASFAANFAAVANNLFKGYHVQVTARDEDDLDENELLMKISNAAGARYSIQTSSKQQGKASTPPVKKSFTPSKSPAPVSKKEPVKTPSPAPAAKISSRVNDNNDDDDWNEPELKERDFDQAPLKPNQSSYKPIGKIDLQKVIAEEKAKEDPRLVQKPTAAGSKIDPSSDIANLKNESKLKRDSEFNSFLGTTKPPSMTESSLKNDDDKVIKGFRNEKSPAQLWAERKAKQNSGNAETKAEAPKPEVPEDEPEGEPDVKDLKSKFEGLAASEKEEEEMENKFAPPPKKSEPTIISPKPFSKPQEPVKAEEAEQPKTDYKKIGNPLPGMHIEADNEEEPEENDDDWDDDEDEAAQPPLPSRNVASGAPVQKEEPEQEEIAPSLPSRNSIPAPKQEEAPEQAPEEEIEEEAEEAAPQLPSRSSAAPPPPPRRATPEKKPKENPWATAEYDYDAAEDNELTFVENDKIINIEFVDDDWWLGELEKDGSKGLFPSNYVSLGN
B2 registered a Flag of 9263.

B3: Sla1 WT (protein, UniProt P32790 1-1244, looked up)
Actin cytoskeleton-regulatory …: MTVFLGIYRAVYAYEPQTPEELAIQEDDLLYLLQKSDIDDWWTVKKRVIGSDSEEPVGLVPSTYIEEAPVLKKVRAIYDYEQVQNADEELTFHENDVFDVFDDKDADWLLVKSTVSNEFGFIPGNYVEPENGSTSKQEQAPAAAEAPAATPAAAPASAAVLPTNFLPPPQHNDRARMMQSKEDQAPDEDEEGPPPAMPARPTATTETTDATAAAVRSRTRLSYSDNDNDDEEDDYYYNSNSNNVGNHEYNTEYHSWNVTEIEGRKKKKAKLSIGNNKINFIPQKGTPHEWSIDKLVSYDNEKKHMFLEFVDPYRSLELHTGNTTTCEEIMNIIGEYKGASRDPGLREVEMASKSKKRGIVQYDFMAESQDELTIKSGDKVYILDDKKSKDWWMCQLVDSGKSGLVPAQFIEPVRDKKHTESTASGIIKSIKKNFTKSPSRSRSRSRSKSNANASWKDDELQNDVVGSAAGKRSRKSSLSSHKKNSSATKDFPNPKKSRLWVDRSGTFKVDAEFIGCAKGKIHLHKANGVKIAVAADKLSNEDLAYVEKITGFSLEKFKANDGSSSRGTDSRDSERERRRRLKEQEEKERDRRLKERELYELKKARELLDEERSRLQEKELPPIKPPRPTSTTSVPNTTSVPPAESSNNNNSSNKYDWFEFFLNCGVDVSNCQRYTINFDREQLTEDMMPDINNSMLRTLGLREGDIVRVMKHLDKKFGRENIASIPTNATGNMFSQPDGSLNVATSPETSLPQQLLPQTTSPAQTAPSTSAETDDAWTVKPASKSESNLLSKKSEFTGSMQDLLDLQPLEPKKAAASTPEPNLKDLEPVKTGGTTVPAAPVSSAPVSSAPAPLDPFKTGGNNILPLSTGFVMMPMITGGDMLPMQRTGGFVVPQTTFGMQSQVTGGILPVQKTGNGLIPISNTGGAMMPQTTFGAAATVLPLQKTGGGLIPIATTGGAQFPQTSFNVQGQQQLPTGSILPVQKTANGLISANTGVSMPTVQRTGGTMIPQTSFGVSQQLTGGAMMTQPQNTGSAMMPQTSFNAVPQITGGAMMPQTSFNALPQVTGGAMMPLQRTGGALNTFNTGGAMIPQTSFSSQAQNTGGFRPQSQFGLTLQKTGGIAPLNQNQFTGGAMNTLSTGGVLQQQQPQTMNTFNTGGVMQELQMMTTFNTGGAMQQPQMMNTFNTDGIMQQPQMMNTFNTGGAMQQPQQQALQNQPTGFGFGNGPQQSRQANIFNATASNPFGF
For B3, the Flag was found to be 58812.

B4: Bzz1 WT (protein, UniProt P38822 1-633, looked up)
Protein BZZ1: MSADLSIGNEIKDSFKETHKWVQNNLKWLKDIEQFYRERAKLEKDYSERLSRLSAEYFNKKSSTSVPISVGDTPTTTPGSIEAAGVVAWNEILSQTDMISKDHDQLSTDFENHVANQLSGLFTKLDMTLSKINGFNNDMVNKKDNIYHELEKAKKDYDEACSTMEMARNRYTKASNDRNKKKLDEKEMEMNKCKNEYLIKINQANRTKDKYYFQDVPEVLDLLQDVNEAKTLFLNDLWLKAASVENDLGANVSKRLQAANSVVKQNKPSLNTAIFIKHNLKNWKEPQDFVYKPSPVWHDDEKFAVPSSLEVEDLRIKLAKAENDYNSLQDKTQNELSKLSTLNKIKHEMKTNEDNINATKFYDTLKEYLNVVSPFTSHETLKLQAEVQIESIQNNVPEEYDLSTDNIDLSKTKKKSGIFSKFKHNILNVDSKPSSGGSTGNGNGGPLHITSLFNTSRRTRLGSAPNNAGEDSDNNSIRTTSTNNTKKTTQNSSDDGKNKVLYAYVQKDDDEITITPGDKISLVARDTGSGWTKINNDTTGETGLVPTTYIRISSAATVKANDRGPAPEVPPPRRSTLPVRTMEAIYAYEAQGDDEISIDPGDIITVIRGDDGSGWTYGECDGLKGLFPTSYCK
In turn, B4 returned a Flag of 215050.
